Source: article PMC6171530 (Nature chemical biology, 2018)

B1: His6-RNR-α (enzyme, human, UniProt P23921 1-792, looked up)
chain: MHVIKRDGRQERVMFDKITSRIQKLCYGLNMDFVDPAQITMKVIQGLYSGVTTVELDTLAAETAATLTTKHPDYAILAARIAVSNLHKETKKVFSDVMEDLYNYINPHNGKHSPMVAKSTLDIVLANKDRLNSAIIYDRDFSYNYFGFKTLERSYLLKINGKVAERPQHMLMRVSVGIHKEDIDAAIETYNLLSERWFTHASPTLFNAGTNRPQLSSCFLLSMKDDSIEGIYDTLKQCALISKSAGGIGVAVSCIRATGSYIAGTNGNSNGLVPMLRVYNNTARYVDQGGNKRPGAFAIYLEPWHLDIFEFLDLKKNTGKEEQRARDLFFALWIPDLFMKRVETNQDWSLMCPNECPGLDEVWGEEFEKLYASYEKQGRVRKVVKAQQLWYAIIESQTETGTPYMLYKDSCNRKSNQQNLGTIKCSNLCTEIVEYTSKDEVAVCNLASLALNMYVTSEHTYDFKKLAEVTKVVVRNLNKIIDINYYPVPEACLSNKRHRPIGIGVQGLADAFILMRYPFESAEAQLLNKQIFETIYYGALEASCDLAKEQGPYETYEGSPVSKGILQYDMWNVTPTDLWDWKVLKEKIAKYGIRNSLLIAPMPTASTAQILGNNESIEPYTSNIYTRRVLSGEFQIVNPHLLKDLTERGLWHEEMKNQIIACNGSIQSIPEIPDDLKQLYKTVWEISQKTVLKMAAERGAFIDQSQSLNIHIAEPNYGKLTSMHFYGWKQGLKTGMYYLRTRPAANPIQFTLNKEKLKDKEKVSKEEEEKERNTAAMVCSLENRDECLMCGS
B2: His6-HA-HNH&APIM (domain or fragment, UniProt Q5FWF4 929-1079, looked up)
chain: NSWDSRFCSLKCQEEFWIRSNNSYLRAKVFETEHGVCQLCNVNAQELFLRLRDAPKSQRKNLLYATWTSKLPLEQLNEMIRNPGEGHFWQVDHIKPVYGGGGQCSLDNLQTLCTVCHKERTARQAKERSQVRRQSLASKHGSDITRFLVKK

Columns and labels:
[1] = biological target: the molecule itself; experiment: negative-stain electron microscopy
His6-RNR-α = biological target: B1; experiment: pull-down

Binder | stoichiometry N [1] | binding result (His6-RNR-α)
B1 | 6 | –
B2 | – | binds
